Results taken from doi:10.1101/2020.10.28.357137.

Molecular target: SARS-CoV-2 Spike S2 protein fused to the pilot peptide CilPP, on S-EVs (SARS-CoV-2)
Assay: non-reducing SDS-PAGE and Western blot

**Q.** Which stoichiometry N does the source give for “SARS-CoV-2 Spike S2 protein fused to the pilot peptide CilPP, on S-EVs (domain or fragment)” here?
**A.** The stoichiometry N was 3.
